Test results reported in PMC7797036.

Tests used:
APOBEC3H haplotype VII = assay: fluorescence anisotropy
[1] = tested on: APOBEC1 (A1), RNase A untreated; assay: fluorescence anisotropy
[2] = biological target: APOBEC1 (A1), RNase A treated (UniProt P41238); assay: fluorescence anisotropy
APOBEC3C = APOBEC3C (UniProt Q9NRW3 1-190); assay: EMSA
Sequence of APOBEC3C (Q9NRW3 whole entry): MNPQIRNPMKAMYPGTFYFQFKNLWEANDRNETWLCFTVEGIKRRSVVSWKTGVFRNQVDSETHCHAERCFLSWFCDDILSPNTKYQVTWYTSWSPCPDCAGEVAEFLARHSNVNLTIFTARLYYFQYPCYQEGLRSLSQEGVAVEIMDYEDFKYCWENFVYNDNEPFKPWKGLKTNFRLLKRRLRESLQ

Sequence of APOBEC1 (A1), RNase A treated (P41238 whole entry): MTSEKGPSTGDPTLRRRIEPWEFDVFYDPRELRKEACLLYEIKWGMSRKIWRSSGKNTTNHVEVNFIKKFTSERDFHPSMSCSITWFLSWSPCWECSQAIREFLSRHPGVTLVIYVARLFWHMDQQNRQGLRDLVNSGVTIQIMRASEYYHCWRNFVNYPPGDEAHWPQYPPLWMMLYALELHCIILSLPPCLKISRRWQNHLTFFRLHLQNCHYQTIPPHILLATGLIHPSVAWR

| Molecule | binding signal (fold Kd increase vs no RPA) (APOBEC3H haplotype VII) | Kd [1] | Kd [2] | binding signal (fold Kd increase vs no RPA) [2] | binding result (APOBEC3C) |
| --- | --- | --- | --- | --- | --- |
| 118 nt ssDNA with two 5'TTC motifs 63 nt apart | 3 | 351 nM | 343 nM | 9 |  |
| ATTATTATTATTCGAATGGATTTATTTATTTATTTATTTATTT (ssDNA) [43 nt ssDNA] |  |  |  |  | binds |
